Reference: article PMC2115427

Target: urokinase plasminogen activator receptor (uPAR) of U937 cells (human (endogenous in U937)) (UniProt Q03405)
UniProt Q03405, sequence (Q03405 23-305): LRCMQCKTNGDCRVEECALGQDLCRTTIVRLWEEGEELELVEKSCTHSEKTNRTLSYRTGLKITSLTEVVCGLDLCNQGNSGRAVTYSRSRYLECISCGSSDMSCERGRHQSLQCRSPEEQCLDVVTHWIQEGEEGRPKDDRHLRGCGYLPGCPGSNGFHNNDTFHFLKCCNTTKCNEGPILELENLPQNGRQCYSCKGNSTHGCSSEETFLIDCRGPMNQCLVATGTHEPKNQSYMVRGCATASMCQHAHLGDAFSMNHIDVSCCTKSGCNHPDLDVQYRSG

half-life of dissociation: 3 h
Substance: human urinary urokinase of high Mr (uPA) (enzyme)
